Data reported in patent publication EP2386565A2 (Cambridge Enterprise Ltd., dated 2000).
One block for each binder: values may come before it. No end group written: not given here. *: point of attachment. Biotin = O=C1N[C@H]2[C@H](CS[C@H]2CCCCC(=O)*)N1

Experiments:
[1] = molecular target: T1, Duffy Antigen Receptor for Chemokines (DARC) (human, UniProt Q16570 1-336); test: ka for binding to red blood cells divided by ka for binding to THP-1 cells
T1 construct: whole, on cells
T1 sequence (looked up): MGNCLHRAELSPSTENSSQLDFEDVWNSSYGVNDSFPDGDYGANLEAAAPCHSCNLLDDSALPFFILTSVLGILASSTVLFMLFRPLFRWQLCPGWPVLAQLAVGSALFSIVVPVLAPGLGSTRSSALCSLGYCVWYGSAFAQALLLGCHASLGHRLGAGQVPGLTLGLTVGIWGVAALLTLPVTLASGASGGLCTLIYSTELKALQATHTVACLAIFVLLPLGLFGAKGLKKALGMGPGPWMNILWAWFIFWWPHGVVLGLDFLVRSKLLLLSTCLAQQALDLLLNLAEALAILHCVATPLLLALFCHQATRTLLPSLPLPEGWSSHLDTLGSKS

[2] = molecular target: T1, Duffy Antigen Receptor for Chemokines …; test: Table 18, DARC binding; ns = not significantly different from control
[3] = molecular target: T1, Duffy Antigen Receptor for Chemokines …; test: DARC binding on red blood cells; printed as Duffy affinity
[4] = molecular target: T1, Duffy Antigen Receptor for Chemokines …; test: Duffy binding; kind of constant not named
[5] = molecular target: T1, Duffy Antigen Receptor for Chemokines …; test: competition binding analysis using red blood cells; given as affinity
[6] = molecular target: T1, Duffy Antigen Receptor for Chemokines …; test: estimated ka for binding to red blood cells divided by average inhibitory ED50 in THP-1 migration
CCR3 = molecular target: T2, CCR3 (human, UniProt P51677 1-355); test: biotin-labeled peptide on receptor-expressing cell lines, 125I-streptavidin
T2 construct: whole, on cells
T2 sequence (looked up): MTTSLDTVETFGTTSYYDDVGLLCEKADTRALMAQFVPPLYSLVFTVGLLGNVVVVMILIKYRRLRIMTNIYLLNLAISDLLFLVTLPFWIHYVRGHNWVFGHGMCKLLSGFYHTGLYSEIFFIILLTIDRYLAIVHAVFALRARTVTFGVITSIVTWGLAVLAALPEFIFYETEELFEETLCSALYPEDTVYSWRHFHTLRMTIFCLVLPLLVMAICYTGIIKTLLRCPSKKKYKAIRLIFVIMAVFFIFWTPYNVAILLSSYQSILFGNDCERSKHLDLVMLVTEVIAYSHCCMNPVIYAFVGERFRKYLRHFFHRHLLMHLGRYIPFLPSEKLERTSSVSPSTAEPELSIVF

CXCR1 = molecular target: T3, CXCR1 (human, UniProt P25024 1-350); test: as above
T3 construct: whole, on cells
T3 sequence (looked up): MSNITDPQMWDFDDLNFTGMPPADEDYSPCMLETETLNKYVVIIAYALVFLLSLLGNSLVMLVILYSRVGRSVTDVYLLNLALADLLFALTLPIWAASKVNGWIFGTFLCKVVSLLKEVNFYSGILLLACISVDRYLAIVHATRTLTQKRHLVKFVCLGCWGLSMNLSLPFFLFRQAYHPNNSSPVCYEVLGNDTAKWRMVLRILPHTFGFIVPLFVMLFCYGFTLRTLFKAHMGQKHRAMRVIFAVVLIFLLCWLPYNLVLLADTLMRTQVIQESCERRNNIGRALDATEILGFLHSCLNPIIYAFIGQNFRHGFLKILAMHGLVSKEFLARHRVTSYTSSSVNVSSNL

CCR4 = molecular target: T4, CCR4 (human, UniProt P51679 1-360); test: as above
T4 construct: whole, on cells
T4 sequence (looked up): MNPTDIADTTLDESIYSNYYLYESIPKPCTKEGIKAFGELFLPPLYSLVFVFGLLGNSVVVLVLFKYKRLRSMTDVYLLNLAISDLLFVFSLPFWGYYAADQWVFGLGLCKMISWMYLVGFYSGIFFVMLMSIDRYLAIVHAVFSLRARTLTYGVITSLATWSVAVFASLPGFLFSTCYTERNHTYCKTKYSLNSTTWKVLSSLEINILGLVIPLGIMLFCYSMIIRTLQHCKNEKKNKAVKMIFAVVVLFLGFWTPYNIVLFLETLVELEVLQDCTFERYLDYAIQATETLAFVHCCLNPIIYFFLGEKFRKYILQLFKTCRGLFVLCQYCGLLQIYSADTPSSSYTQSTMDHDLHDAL

CCR1 = molecular target: T5, CCR1 (human, UniProt P32246 1-355); test: as above
T5 construct: whole, on cells
T5 sequence (looked up): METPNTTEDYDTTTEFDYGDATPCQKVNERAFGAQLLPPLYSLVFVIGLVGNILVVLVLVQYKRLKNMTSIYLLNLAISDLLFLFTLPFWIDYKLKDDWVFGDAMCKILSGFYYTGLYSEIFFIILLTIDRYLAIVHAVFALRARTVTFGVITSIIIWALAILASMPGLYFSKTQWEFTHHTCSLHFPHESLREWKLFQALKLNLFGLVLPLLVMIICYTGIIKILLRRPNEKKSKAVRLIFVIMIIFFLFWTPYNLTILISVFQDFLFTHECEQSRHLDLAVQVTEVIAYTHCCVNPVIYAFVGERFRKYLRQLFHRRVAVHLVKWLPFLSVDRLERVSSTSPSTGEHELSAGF

CXCR4 = molecular target: T6, CXCR4 (human, UniProt P61073 1-352); test: as above
T6 construct: whole, on cells
T6 sequence (P61073 whole entry): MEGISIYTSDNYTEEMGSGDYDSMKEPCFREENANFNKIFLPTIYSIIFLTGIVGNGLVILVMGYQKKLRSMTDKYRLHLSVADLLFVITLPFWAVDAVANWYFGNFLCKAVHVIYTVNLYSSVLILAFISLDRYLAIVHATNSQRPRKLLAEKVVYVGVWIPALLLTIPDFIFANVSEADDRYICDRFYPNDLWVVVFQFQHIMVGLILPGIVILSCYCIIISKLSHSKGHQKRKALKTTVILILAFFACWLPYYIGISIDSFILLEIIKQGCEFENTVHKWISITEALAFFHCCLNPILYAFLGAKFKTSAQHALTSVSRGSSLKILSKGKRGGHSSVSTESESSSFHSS

CCR2 = molecular target: T7, CCR2 (human, UniProt P41597 1-374); test: as above
T7 construct: whole, on cells
T7 sequence (P41597 whole entry): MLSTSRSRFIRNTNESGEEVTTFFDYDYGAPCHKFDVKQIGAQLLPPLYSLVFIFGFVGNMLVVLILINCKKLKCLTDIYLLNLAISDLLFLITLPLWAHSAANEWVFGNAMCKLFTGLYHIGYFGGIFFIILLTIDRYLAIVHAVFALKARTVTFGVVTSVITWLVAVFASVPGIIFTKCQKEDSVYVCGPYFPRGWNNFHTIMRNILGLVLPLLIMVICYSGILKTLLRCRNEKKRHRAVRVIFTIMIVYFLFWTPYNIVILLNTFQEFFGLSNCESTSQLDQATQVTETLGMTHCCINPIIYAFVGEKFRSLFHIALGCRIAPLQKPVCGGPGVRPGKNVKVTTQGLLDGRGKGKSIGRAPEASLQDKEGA

CCR5 = molecular target: T8, CCR5 (human, UniProt P51681 1-352); test: as above
T8 construct: whole, on cells
T8 sequence (P51681 whole entry): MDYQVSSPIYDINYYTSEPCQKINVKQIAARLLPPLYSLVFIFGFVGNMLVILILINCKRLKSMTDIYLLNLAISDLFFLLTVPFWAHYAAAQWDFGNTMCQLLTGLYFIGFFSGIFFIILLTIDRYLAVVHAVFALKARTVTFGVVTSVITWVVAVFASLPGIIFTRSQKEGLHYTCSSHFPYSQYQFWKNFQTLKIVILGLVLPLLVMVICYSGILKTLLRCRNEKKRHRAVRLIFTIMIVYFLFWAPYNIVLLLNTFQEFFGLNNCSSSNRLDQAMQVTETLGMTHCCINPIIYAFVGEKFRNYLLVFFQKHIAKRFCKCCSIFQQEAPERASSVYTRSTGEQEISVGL

CXCR2 = molecular target: T9, CXCR2 (human, UniProt P25025 1-360); test: as above
T9 construct: whole, on cells
T9 sequence (looked up): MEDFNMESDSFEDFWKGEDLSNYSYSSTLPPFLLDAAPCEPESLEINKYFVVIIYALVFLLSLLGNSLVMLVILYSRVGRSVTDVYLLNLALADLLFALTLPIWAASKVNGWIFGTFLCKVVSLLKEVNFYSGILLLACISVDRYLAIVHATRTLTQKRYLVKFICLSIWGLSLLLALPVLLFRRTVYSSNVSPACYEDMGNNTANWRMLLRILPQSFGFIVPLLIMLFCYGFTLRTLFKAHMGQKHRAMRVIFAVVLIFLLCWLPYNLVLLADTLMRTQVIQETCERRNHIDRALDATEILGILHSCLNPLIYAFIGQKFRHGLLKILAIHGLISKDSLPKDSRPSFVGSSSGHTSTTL

- Duffy selectivity [1]: > 100 ratio
B1: Pep2(1-14)[MIP1α] (peptide)
peptide: DYFETSSQCSKPGV
notes: Called peptide 2(1-15)[MIP1α]; also called Pep2[MIP1α]; peptide 2(1-15)[MIP1-α]

- binding result [2]: no binding
Binder: CSKPGV

- Kd [3]: ~50 µM
Binder: SYRRITSSK [Peptide 2(1-9)[MCP-1]]

- Duffy selectivity [1]: 0.18 ratio
- Kd [4]: 100 µM
- Kd [5]: < 0.5 µM
B2: Peptide 2(1-15)[MCP-1] (peptide)
peptide: SYRRITSSKCPKEAV
notes: also called Pep2[MCP1]; Pep2(1-15)[MCP1]

- Duffy selectivity [1]: < 1 ratio
Binder: ELRVIESGPHCANTEI (also called Pep2[IL8]) [Pep2(1-16)[IL8]]

- binding result [2]: no binding
Binder: DYFETSSQC

- Duffy selectivity [6]: 37.8 ratio
B3: Leu4Ile11peptide 3(1-12)[MCP-1] (peptide)
peptide: EICLDPKQKWIQ
notes: also called Leu4Ile11pep3; Leu4Ile11peptide 3[MCP-1]

- Kd (CCR3): > 10 µM
- Kd (CXCR1): > 10 µM
- Kd (CCR4): > 10 µM
- Kd (CCR1): > 10 µM
- Kd (CXCR4): > 10 µM
- Kd (CCR2): > 10 µM
- Kd (CCR5): > 10 µM
- Kd (CXCR2): > 10 µM
Binder: Biotin-CLDPKQKWIQC (cysteine pairing not given here, also called biotinylated peptide) [N-terminal biotin conjugate of the sequence n'-CLDPKQKWIQC-c']
